Measured values as given in the nanobody polyreactivity screen of Harvey et al. (2022).

Assay: yeast display, Sf9 membrane polyspecificity reagent, FACS + sequencing; frameworks hold sequencing errors
How it was run: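 Galactose-induced (36–48 hours) yeast carrying a synthetic nanobody display library were exposed to 10% biotinylated, detergent-solubilized Sf9 membrane reagent at 4 °C for 1 hour. FACS followed streptavidin microbead enrichment, using low and high (top ~1%) gates for expression (anti-HA) and reagent binding (streptavidin). Colony PCR, MiSeq 2 × 250 sequencing and CDR-length filtering followed. Labels for polyreactivity reflect the gate of origin.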

Sequence: QVQLVESGGGLVQAGGSLRLSCAASGFTFLSYTMGWYRQAPGKERELVASITASGTRTYYADSVKGRFTISRDNAKNTVYLQMNRLKPEDTAVYYCAARRSGSGSHDYGYWGQGTQVTVSS
- polyreactivity (PSR sort gate): low polyreactivity

Sequence: QVQLVESGGGLVQAGGSLSLSCAASGLTFAKNAMGWYRQAPGKERELVAVITSSGGSTYYADSVKGRFTISRDNAKNTVYLQMNSLKPEDTAVYYCNVAYYDRSRSTGYEYWGQGTQVTVSS
- polyreactivity (PSR sort gate): high polyreactivity

Sequence: QVHLVESVVCLVQAGGSLALSCASYGSIFRYYALGWYIQGTGKESELVAGITWGCRRTFYADSEKGRFTISRHNAKNTFYIQMNILKPEDTAVCYCAPRWFWKAYRFYYWGQGTQLTVSS
- polyreactivity (PSR sort gate): high polyreactivity

Sequence: QVQLVESGGGLVQAGCSLRLSCAASGSIFDVNAMGWYRQAPGKERELVAAISQRGNRTYYADSVKGRFTISRDNAKNTVYLQMNSLKPEDTAVYYCNRGGWRQYDSWGQGTQVTVSS
- polyreactivity (PSR sort gate): high polyreactivity

Sequence: QVQLVESGGGLVQAGGSLRLSCAASGRTFAIYAMGWYRQAPGKERELVAVINYSGDRTYYADSVKGRFTISRDNAKNTVYLQMNSLKPEDTAVYYCAAVLEYTSDYLSGENDYWGQGTQVTVSS
- polyreactivity (PSR sort gate): low polyreactivity

Sequence: QVQLVESGGGLVQAGGSLRLSCAASGLTFGRYAMGWYRPAPGKERELVAAISSGGSTYYADSVKGRFTISRDNAKNTVYLQMNSLKPEDTAVYYCAADYVGWYFVSGRDYWGQGTQVTVSS
- polyreactivity (PSR sort gate): low polyreactivity

Sequence: QVQLVESGGGLVHAGGSLSLSCAASGSIFGYYAKGWYRQAPGKERELVAAITVSGGSTYYADSVKGRFTISRDNAKNTDYLQLISLKPEDTAVYYCAADDIYGEYYYWGQGTQVTVSS
- polyreactivity (PSR sort gate): high polyreactivity

Sequence: QVQLVESGGVLVQAGGSLRLSCAASGIIFGRDTMGWYRQAPGKERELVAAITSSGITYYADSVKGRFTFSRDNAKNCVYLQMNSLKPEDTAVYYCIADYSIPGYYWPYDYWGQCTQVTVSS
- polyreactivity (PSR sort gate): low polyreactivity

Sequence: HVHLVESGGGLVQAGGRLRLTCAASGRTFQKYAMGWYREAPRKERELVAAITTSGGSTYYADSVKGRFTISRDYAKYTVYLQMNSLKPEDTAVYYCNKAYAYAGHDYDWGQGTKVTVSS
- polyreactivity (PSR sort gate): high polyreactivity

Sequence: QVQLVESGGGLVQAGGSLRLSCAASGRTFSGYAMGWYRQAPGKERELVAAITGRGGSTYYADSVKGRFTISRDNAKNTVYLQMNSLKPEDTAVYYCAAYGIWYRVDYWGQGTQVTVSS
- polyreactivity (PSR sort gate): high polyreactivity

Sequence: QVQLVESGGGLVQAGGSLRLSCAASGFIFSGNAMGWYRQAPGKERELVAAISSGGSTNYADSVKGRFTISRDNAKNTVYLQMNSLKPEDTAVYYCNADSPERIPVDLENDYWGQGTQVTVSS
- polyreactivity (PSR sort gate): low polyreactivity

Sequence: QVQLVESGGGLVQAGGSLRLSCAASGRIFQYYAMGWYRQAPGKERELVAAINSSGGRTYYADSVKGRFTISRDNAKNTVYLQMNSLKPEDTAVYYCNAVLSTRGMDYWGQGTQVTVSS
- polyreactivity (PSR sort gate): high polyreactivity

Sequence: QVQLVESGGGLVQAGGSLRLSCAASGRILYCYTMGWYRQAPGKERELVAGITTRGGNTYYADSVKGRFTISRDNAKNSVYLQMNSLKPEDTAVYYCAARFSGPARMDYWGQGTQVTVSS
- polyreactivity (PSR sort gate): low polyreactivity

Sequence: QVQLVESGGGLDQAGGSLRLSCAASGRTFYNNAMGWYRPAPGKERELVAAITRGGSTYYADSVKGRFTISRDNAKNTVYLPMNSLKPEDTAVYYCAADGFTRWGRYDYWGQGTQVTVSS
- polyreactivity (PSR sort gate): high polyreactivity

Sequence: QVQLVESGGGLVQAGGSLRLSCAASGFIFGRYAMGWYRQAPGKERELVAAISSGDDTDYADSVKGRFTISRDNAKNTVYLQMNSLKPEDTAVSYCARSRFWSPVIYRRTIEFDSWGQGTQVTVSS
- polyreactivity (PSR sort gate): low polyreactivity

Sequence: QVQLVESGGGLVQAGGSLRLSCAASGNIFYNVMGWYRQAPGKERELVAVISSGDSTYYADSVKGRFTISRDNAKNTVYLQMNSLKPEDTAVYYCNAQWITSAYLLYSYDYWWGYDYWGQGTQVTVSS
- polyreactivity (PSR sort gate): high polyreactivity

Sequence: QVQLHESGGGLVQAGGSLRLSCAASGTISYAGPMGWYRQAPGKEREFVAGIGVGSNTNYADSVKGRYTIIRDNAKNTVYLQMNSLKPEDTAVDYCAVGGYAPLGRPYWGQGTQVTVSS
- polyreactivity (PSR sort gate): low polyreactivity

Sequence: QLQLVESGGGLVQAGGSLRLSCAASGSTFDVNAMGWYRQAPGKERELVAAISYSGGSTYYADSVKGRFTISRDNAKNTVYLQMNSLTPEDTAVYYCNAVFSRYSRLELGYWGQGTQVTVSS
- polyreactivity (PSR sort gate): high polyreactivity

Sequence: QVQLVESGGGLLQAGGSLRLSSAASGGTFPKYTKGWYRPAPGKEWELVAAITSRGGTYYADSVKGRFTISRDNAKNSVYLQMNSLKPEDTAVYYCAAEYSYSSYLWYDYWGQGTQVTVSS
- polyreactivity (PSR sort gate): high polyreactivity

Sequence: QVQLVESGGGLVQAGGSLRLSCAASGNNFSRYSMGCSRPAPGKERELVASISRGGRTNYADSVKGRFTISLDNAKNTVYLQMNSLNPEDTAVYYCALGGNGYWHQSGPYPYNYWGQGTQVTVSS
- polyreactivity (PSR sort gate): high polyreactivity

Sequence: QVQLVESGGGLVQAGGSLRLSCADSGITIVWYAIGWYRQAPGKERELVAAISRGGGSTYYADSVKGRFTISRDNAKNTVYLQMNSLKPEDTAVYYCAASGGYTFDWLEFDYWGQGTQVTVSS
- polyreactivity (PSR sort gate): low polyreactivity

Sequence: QVQLVESGGGLVQAGGSLRLICAASGSTNYRYAMGWYRQAPGKERELVATISSTGARTNYADSVKGRFTISRDNAKNTDYLQMNSLKPEDTAVYYCAASAPYIYYWGQGTQVTVSS
- polyreactivity (PSR sort gate): high polyreactivity

Sequence: QVQLVESGGGLVQAGGSLRLSCAASGSIFFYYAMGRYRQAPGKEMELVATINIGAGSTNYADSVKGRFTISRDNAKNTVYLQMNSLKPEDTAVYYCAADVNFYQDYIYLTDYDYWGQGTQVTVSS
- polyreactivity (PSR sort gate): low polyreactivity

Sequence: QVHLVESGGGLVQAGGSLRLSCAASGFIFPNNAMGWYRQAPGKERELVARISYGGGDTHYADSVKGRFTISRDNAKNTVYLQMNSLKPEDTAVSYCAVKDGQDDYWGQGTQVTVSS
- polyreactivity (PSR sort gate): low polyreactivity

Sequence: QVQLVESGGGLVQAGGSLRLSCAASGRIIYGYAMGWDRQAPGKEREFVARINVSGTSTFYADSVKGRFTISRDNAKNTVYLQMNSLKTVDTAVYDCAARGLPSNYYYYVHGYIMDHWGQGTQVSVSS
- polyreactivity (PSR sort gate): low polyreactivity

Sequence: QVQLQESGGGLVQAGGSLRLSCAASGSISRLDYMGWYRQASGKERELVAAIDNGRTTYYAESVKGRLTISRDNAKYTVYLQMNSLKPEDTAVYCCAAVRGRGGTHAYWGQGTQVTVSG
- polyreactivity (PSR sort gate): low polyreactivity

Sequence: QVQLVESGGGLVQAGGSLRLSCAASGRIFWDNALGWYRKAPGTERELVAAISDSVVITYYADSVKGRFTISRDNAKNTVYLQMNSLKPEDSAVYYCAAGGWPYSGGWFFQPNYDYWGQGTQVTVSS
- polyreactivity (PSR sort gate): low polyreactivity

Sequence: QVQLVESGGGLVQAGGSLRLSCAASGNTFGTYVMGWYRPAPGKERELVAAISQSGGSTDYADSVKGRFTISRDNAKKTVYLQMNSLKPEDTAVYYCAKVTWGTVWYRSPSEYDYWGQGTQVTVSS
- polyreactivity (PSR sort gate): low polyreactivity

Sequence: QVQLVESGGGLVQAGGSLRLSCAASGRNFYQYGMGWYREAPGKERELVAAISDSGGGTYYADSVKGRFTISGDNAKNTVYLQMNSLKPEDSAVYYCAATYVGPRRRYYYWGQGTQVTVSS
- polyreactivity (PSR sort gate): high polyreactivity

Sequence: HVQVVESGGGLVQEGGSLRLICAASGYLFAYYAMGWFRQAPGKERELVAPIRSGGSTNYADSVKGRFTISRDNAKNTVYLQMNSLKPEDTAVYYCAKGDRRWTLCRPDYDYWGQGTQVTVAS
- polyreactivity (PSR sort gate): low polyreactivity

Sequence: QVQLVESGGGLVQAGGSLRLSCAASGSTFSEYVMGWYRQAPGKERELVAAIRSNGGSTYYADSVKGRFTISRDNAKNTVYLQMNSLKPEDTAVYYCNRVYSRRTYNSPLYDYWGQGTQVTVSS
- polyreactivity (PSR sort gate): high polyreactivity
